For experiment [1], the target named is T1, human TNFα in complex with compound (2) (human, UniProt P01375 77-233).
T1 construct: also called human TNFα +compound (2)
Kind of experiment: SPR BIAcore T200; IgG captured on anti-mouse Fc; TNFα 50 nM + 2 µM compound injected.

The target in experiment [2] is T2, human TNFα in complex with compound (1) (human, UniProt P01375 77-233).
T2 construct: also called human TNFα +compound (1); TNFα-compound (1) complex
The experiment is described as above.

The target of experiment [3] is T1, human TNFα in complex with compound (2). Description: SPR BIAcore T200; IgG captured on anti-mouse Fc. In general terms: SPR reads the build-up and loss of mass on a sensor chip optically.
Experiment [4] has as its target T2, human TNFα in complex with compound (1). Description: SPR BIAcore T200; IgG captured on anti-mouse Fc.
Experiment [5] deals with T3, human TNFα without compound (apo) (human, UniProt P01375 77-233).
T3 construct: In-house human TNFα; No compound, DMSO only; also called apo human TNFα; hTNF
Description: SPR BIAcore T200; IgG captured on anti-mouse Fc; apo TNFα 50 nM injected.

The target in experiment [6] is T2, human TNFα in complex with compound (1). Description: size exclusion chromatography (HPLC), molar excess of Fab.

T1 sequence (P01375 77-233 limits assumed, one chain of several): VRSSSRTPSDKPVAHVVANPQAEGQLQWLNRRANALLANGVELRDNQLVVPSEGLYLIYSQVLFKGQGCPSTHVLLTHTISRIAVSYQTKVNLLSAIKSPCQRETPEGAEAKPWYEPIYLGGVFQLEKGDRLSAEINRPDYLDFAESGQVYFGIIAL
T3 sequence (P01375 77-233 limits assumed): as the sequence (P01375 77-233 limits assumed, one chain of several) above
T2 sequence (P01375 77-233 limits assumed, one chain of several): as above

B1: CA185_01979 mouse IgG1 (antibody, V domains shown)
VH: EVHLVESGPGLVKPSQSLSLTCSVTGYSITNSYWDWIRKFPGNKMEWMGYINYSGSTGYNPSLKSRISISRDTSNNQFFLQLNSITTEDTATYYCARGTYGYNAYHFDYWGRGVMVTVSS
VL: DIQMTQSPASLSASLEEIVTITCQASQDIGNWLSWYQQKPGKSPHLLIYGTTSLADGVPSRFSGSRSGTQYSLKISGLQVADIGIYVCLQAYSTPFTFGSGTKLEIKR
notes: also called CA185_01979.0; VR0001842
As for B1, the Kd (in general, the free concentration of one partner at which half of the binding sites on the other are occupied at equilibrium, for simple one-to-one binding) in experiment [1] amounted to 0.058 nM; in experiment [2] it was 0.034 nM; in experiment [5] it was 6.7 nM. Besides, the koff (usually the rate constant with which the complex falls apart) in experiment [1] came out at 3.3e-05 s⁻¹; in experiment [2] it was 1.6e-05 s⁻¹; in experiment [5], 0.00071 s⁻¹. The kon (commonly a measure of how fast the partners come together) in experiment [1] is 570000 M⁻¹ s⁻¹; in experiment [2] it was 470000 M⁻¹ s⁻¹; in experiment [5], 110000 M⁻¹ s⁻¹. Moreover, the “log selective binding for compound-distorted against apo human TNFα” value in experiment [3] and in experiment [4] was greater than 2 log each time.

B2: CA185_01979 mFab (no hinge) (Fab, V domains shown)
VH: B1 VH
VL: B1 VL
notes: also called CA185_01979 Fab
In the case of B2, the “stoichiometry (Fab : TNFα trimer)” value in experiment [6] came to 1 Fab per TNFα trimer.

These data come from US20180172701A1 (published 2018).
